B1: 792-3: Cannabis terpene synthase gene product, amino acid SEQ ID NO: 8 (protein)
chain: MSYQVLASSQNDKVSKIVRPTTTYQPSIWGERFLQYSISDQDFSYKKQRVDELKEVVRREVFLECYDNVSYVLKIVDDVQRLGLSYHFENEIEKALQHIYDNTIHQNHKDEDLHDTSTRFRLLRQHGFMVSSNIFKIFKDEQGNFKECLITDILGLLSLYEASHLSYIGENILNEALAFTTTHLHQFVKNEKTHPLSNEVLLALQRPIRKSLERLHARHYISSYENKISHNKTLLELAKLDFNLLQCLHRKELSQISRWWKEIDFVHKLPFARDRIVELYLWLLGVFHEPELSLARIISTKVIALASVADDIYDAYGTFEELELLTESINRWDLNCADQLRPECLQTFYKVLLNCYEEFESELGKEESYKVYYAREAMKRLLGAYFSEARWLHEGYFPSFDEHLKVSLISCGYTMMIVTSLIGMKDCVTKQDFEWLSKDPKIMRDCNILCRFMDDIVSHKFEQQRDHSPSTVESYMRQYGVSEQEACDELRKQVINSWKEINKAFLRPSNVPYPVLSLVLNFSRVMDLLYKDGDGYTHIGKETKNSVVALLIDQIP
modifications: Terpene Synthase Gene Amino acid sequence of the 45 identified gene products
B2: AG046-1: Cannabis terpene synthase gene product, amino acid SEQ ID NO: 36 (protein)
chain: MIITGVISSSTPIFKDQPAAIVRRSGNYKPTLWDAHFFQSLQVIYTEESYGKRINELKEDVRRILEKEAENPLVKLEQINDLSRLGISYHFEDQIKTILNLTFNNNNALWKKDNLYATALHFKLLRQYGFSPVSSEVFNAFKDEKKEFKESLSKDVKGMVCLYEASFYSFRGEPILDEARDFTTKHLKQYLMTRQSQFTRVDHHDDDDHDLVKLVEHALDLPLHWRLPRLEARWFIDMYAERNYDMNPTFLDFAKLDYNFVQSAYQKELKYISRWWSGSRLTERLPFARDRVVEIFYSAVALKYEAEFGFVRTVMTKIGLLLTLMDDIYDVYGTLDELQLFLEAIERWNINELDQLPDYMKILFVAFYNNVNEISYYVLKENGIHTIKYLKKALGDLCKCYMEEAKWFHSGHIPSLEEFIENGWKSITIPLCLIYHYCLITTSITEQDMEHLLQYPTILRVSGTVFRFIDDLGTSSDELERGDNPSSIQCYMREKGVSENESREHIWNLISEGWKEINEVKASNSPYSQVFIESAIDFVRGAMEMYHKGDGFGTNQDRYLKTKVVNMFFDPIPI
modifications: Terpene Synthase Gene Amino acid sequence of the 45 identified gene products

Assay: Terpene synthase activity assay with FPP
Assay type: biochemical
Conditions: TPS expressed in E. coli; 10 μM FPP, overnight at 30° C., SPME GC-MS
Experimental: Putative terpene synthase genes were synthesized by the TWIST Co., and cloned into Novagen pET-28a(+) with a 6×His tag at its' N-terminus. The recombinant plasmid was then sequenced for authentication and transformed into BL21(DE3) pLysS and pLysE strains of E. coli (Agilent Technologies) for heterologous expression. An overnight culture was used to inoculate a 20-200 mL culture, induced with 0.1 mM IPTG at an OD 600 nm >0,8 for initiation of recombinant protein translation then incubated at 18° C. and 250 RPM overnight. The cells were collected by centrifugation and the recombinant enzymes were extracted either as a crude extract or purified on a Ni-NTA agarose resin as previously described [Gonda I. et al., The Plant Journal (2013) 61, 458-472]. […]
For solid-phase microextraction (SPME) analysis, a 57298-U SPME fiber assembly Divinylbenzene/Carboxen/Polydimethylsiloxane (DVB/CAR/PDMS, Supelco) needle size 23 ga, StableFlex, was used with an autosampler and analyzed by GC-MS as previously described [Davidovich-Rikanati R. et al., Nature Biotech (2007) 25:899-901; Davidovich-Rikanati R. et al., Plant J (2008) 56:228-238]. […]

| Molecule | Sesquiterpenes produced with FPP |
| --- | --- |
| B1 | caryophyllene, humulene |
| B2 | bisabolene |

From patent publication US20220256794A1, “TERPENE SYNTHASES AND TRANSPORTERS” (The State of Israel, Ministry of Agriculture & Rural …, priority 2019, published 2022)
